Legend:
SIRT3 = molecular target: T1, SIRT3 (Homo sapiens, UniProt Q9NTG7); assay: deacetylation of AcK101 ECHS1 peptide, MS; format: biochemical; conditions: 1 mM NAD+, 30 mM HEPES pH 7.0, 37 °C; acetylated 9-residue ECHS1 peptide as co-substrate
T1 construct: recombinant from E. coli (DE3)
T1 sequence (Q9NTG7 102-399): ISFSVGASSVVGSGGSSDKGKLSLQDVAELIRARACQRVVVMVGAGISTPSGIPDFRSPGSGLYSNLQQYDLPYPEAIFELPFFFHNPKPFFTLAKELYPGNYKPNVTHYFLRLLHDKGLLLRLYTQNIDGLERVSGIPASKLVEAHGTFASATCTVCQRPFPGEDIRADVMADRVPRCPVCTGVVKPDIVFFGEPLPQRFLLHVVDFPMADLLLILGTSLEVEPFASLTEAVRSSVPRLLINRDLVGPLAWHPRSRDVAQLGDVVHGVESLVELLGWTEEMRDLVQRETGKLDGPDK

purified protein = substrate: C/C=C/C(=O)SCCNC(=O)CCNC(=O)[C@H](O)C(C)(C)COP(=O)(O)OP(=O)(O)OC[C@H]1O[C@@H](n2cnc3c(N)ncnc32)[C@H](O)[C@@H]1OP(=O)(O)O; assay: purified protein; format: biochemical, Homo sapiens; conditions: 50 mM Tris-HCl pH 8.0

**Q.** For `NC(=O)c1ccc[n+]([C@@H]2O[C@H](COP(=O)(O)OP(=O)(O)OC[C@H]3O[C@@H](n4cnc5c(N)ncnc54)[C@H](O)[C@@H]3O)[C@@H](O)[C@H]2O)c1` [NAD^+], which “deacetylation of AcK101 ECHS1 peptide, MS” value (SIRT3) is on record?
**A.** The value was “SIRT3 deacetylated synthetic AcK101-containing ECHS1 peptide in an NAD^+-dependent manner in vitro”.

B1: ECHS1 (enoyl-CoA hydratase-1) (Homo sapiens) (protein)
chain: ASGANFEYIIAEKRGKNNTVGLIQLNRPKALNALCDGLIDELNQALKTFEEDPAVGAIVLTGGDKAFAAGADIKEMQNLSFQDCYSSKFLKHWDHLTQVKKPVIAAVNGYAFGGGCELAMMCDIIYAGEKAQFAQPEILIGTIPGAGGTQRLTRAVGKSLAMEMVLTGDRISAQDAKQAGLVSKICPVETLVEEAIQCAEKIASNSKIVVAMAKESVNAAFEMTLTEGSKLEKKLFYSTFATDDRKEGMTAFVEKRKANFKDQ
**Q.** B1 was tested. Which Km (purified protein) did it give?
**A.** The Km was 360 ± 180 µM.

B2: ECHS1 (enoyl-CoA hydratase-1) (Homo sapiens; K101R) (protein)
chain: ASGANFEYIIAEKRGKNNTVGLIQLNRPKALNALCDGLIDELNQALKTFEEDPAVGAIVLTGGDKAFAAGADIREMQNLSFQDCYSSKFLKHWDHLTQVKKPVIAAVNGYAFGGGCELAMMCDIIYAGEKAQFAQPEILIGTIPGAGGTQRLTRAVGKSLAMEMVLTGDRISAQDAKQAGLVSKICPVETLVEEAIQCAEKIASNSKIVVAMAKESVNAAFEMTLTEGSKLEKKLFYSTFATDDRKEGMTAFVEKRKANFKDQ
**Q.** For B2, which Km (purified protein) is on record?
**A.** Its Km is 300 ± 80 µM.

B3: ECHS1 (enoyl-CoA hydratase-1) (Homo sapiens; K101Q) (protein)
chain: ASGANFEYIIAEKRGKNNTVGLIQLNRPKALNALCDGLIDELNQALKTFEEDPAVGAIVLTGGDKAFAAGADIQEMQNLSFQDCYSSKFLKHWDHLTQVKKPVIAAVNGYAFGGGCELAMMCDIIYAGEKAQFAQPEILIGTIPGAGGTQRLTRAVGKSLAMEMVLTGDRISAQDAKQAGLVSKICPVETLVEEAIQCAEKIASNSKIVVAMAKESVNAAFEMTLTEGSKLEKKLFYSTFATDDRKEGMTAFVEKRKANFKDQ
**Q.** With B3 as the molecule, how does the Km (purified protein) read?
**A.** Its Km is 740 ± 430 µM.
